Target: Dipeptidyl aminopeptidase BII (DAP BII) from Pseudoxanthomonas mexicana WO24, wild type (Pseudoxanthomonas mexicana WO24) (UniProt V5YM14)
Test: enzyme inhibition assay

Sequence of Dipeptidyl aminopeptidase BII (DAP BII) from Pseudoxanthomonas mexicana WO24, wild type (Pseudoxanthomonas mexicana WO24) (V5YM14 25-722): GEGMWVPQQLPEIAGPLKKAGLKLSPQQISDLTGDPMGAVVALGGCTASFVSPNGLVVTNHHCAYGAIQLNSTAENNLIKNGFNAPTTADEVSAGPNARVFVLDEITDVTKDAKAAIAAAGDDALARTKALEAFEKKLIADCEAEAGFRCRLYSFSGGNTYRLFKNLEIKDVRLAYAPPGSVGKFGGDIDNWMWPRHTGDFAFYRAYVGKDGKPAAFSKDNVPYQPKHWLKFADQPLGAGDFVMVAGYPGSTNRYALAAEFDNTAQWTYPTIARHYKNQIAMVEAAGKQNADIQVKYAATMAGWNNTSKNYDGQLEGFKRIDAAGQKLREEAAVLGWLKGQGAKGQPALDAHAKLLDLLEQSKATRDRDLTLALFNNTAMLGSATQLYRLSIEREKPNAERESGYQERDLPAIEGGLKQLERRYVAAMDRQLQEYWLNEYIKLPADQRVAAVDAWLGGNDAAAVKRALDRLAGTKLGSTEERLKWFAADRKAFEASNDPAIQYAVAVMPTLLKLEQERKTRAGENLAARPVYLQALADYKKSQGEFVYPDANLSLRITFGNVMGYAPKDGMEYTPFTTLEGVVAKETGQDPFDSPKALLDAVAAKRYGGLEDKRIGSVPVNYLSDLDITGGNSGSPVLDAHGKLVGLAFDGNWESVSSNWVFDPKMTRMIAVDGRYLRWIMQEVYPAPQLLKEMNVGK

Substance: dipeptide Val-Tyr
- Ki: 410 µM
